Some results are limits rather than exact numbers.

Consider 1 molecule from article PMC2949298 (Nature structural & molecular biology, 2010).

Holding throughout (test): SPR
A general note: In SPR one partner is held on a chip, and binding of the other changes the refractive index at the surface.

Assay [1] has as its target UC1_(Full-length) (V1V2-containing UC1 gp120, HIV-2) with sCD4 (HIV-2 isolate UC1 gp120; human CD4, UniProt Q76638;PDB, strain).
In assay [2] the target is CAP210–sCD4 complex (core CAP210 gp120 with sCD4) (HIV-1 clade C CAP210.2.00.E8 gp120; …, strain).
Assay [3] has as its target soluble CD4 (domains 1 and 2 from human CD4) (human).

B1: 21c Fab (Fab, V domains shown)
VH: QVQVVQSGAEVRKPGASVKVSCKVSGFTLTGLSIHWVRQAPGKGLEWMGGFGPEENEIIYAQKFQGRVSMTEDTSTNTAYMELSSLRSEDTAVYYCATGGNYYNLWTGYYPLAYWGQGTLVTVSS
VL: QSVLTQPPSVSAAPGQKVTISCSGSSSNIGKNYVSWYQQLPGAAPKLLIFDDTQRPSGIPDRFSGSKSGTSATLAITGLQTGDEADYYCGTWDSSLSTGQLFGGGTKLTVL
Regarding B1, the binding result in assay [1] is on record as “binds”. Besides, the Kd was 1600 nM in assay [2] and greater than 100000 nM in assay [3].

As usually defined, the Kd is the constant that tells how readily two partners part at equilibrium. Lower therefore signals a tighter complex.
